The target of assay [1] is Lsm protein of Haloferax mediterranei (Haloferax mediterranei). Nature of the assay: SEC; HiPrep 16/60 Sephacryl S-200 HR, 20 mM Tris-HCl pH 7.5, 1 M NaCl, 0.5 mL/min, calibrated with protein standards; without RNA. Background: Size exclusion chromatography separates by hydrodynamic size, large species first.
The target is the same in assay [2]. Description: SEC; HiPrep 16/60 Sephacryl S-200 HR, 20 mM Tris-HCl pH 7.5, 2 M NaCl, 0.5 mL/min, calibrated with protein standards; without RNA.
The target is the same in assay [3]. Nature of the assay: SEC; HiPrep 16/60 Sephacryl S-200 HR, 20 mM Tris-HCl pH 7.5, 0.5 M NaCl, 0.5 mL/min, calibrated with protein standards; without RNA; peaks checked by Western blot with anti-Lsm.
For assay [4] the target is unchanged. Description: SEC; HiPrep 16/60 Sephacryl S-200 HR, 20 mM Tris-HCl pH 7.5, 1.5 M NaCl, 0.5 mL/min, calibrated with protein standards; without RNA; peaks checked by Western blot with anti-Lsm.

“And” between values parts separate entries of the source, which are not always exact repeats. Identical values can stand only once.

The stoichiometry N is the number of molecules, sites or subunits per partner or assembly. In the case of “Lsm protein of Haloferax mediterranei (natural protein)”, the stoichiometry N in assay [1] was 36 subunits; in assay [2], 36 subunits; in assay [3], 36 subunits; in assay [4] it was 72 subunits and 36 subunits.

Source of the values: PMC10779274.
